Assay results from the RNAGym collection of RNA variant scans (doi:10.7554/elife.90254).

B1: OR4K15 (parent)
chain: GUUAACGGUCAUAGGCCAUGGAAACUAGGAGCACCAUUUCGCUGCCAGUGAAGAAAUGAACAAAGAAAAUCUGGGCCAGGCAGGCAUCAAAAGAAAUAGUCUUGCGCUCAACCAGAAAGUCUGUAAUCAUUUUAAGGGUA

Variants of: B1
Experiment: self-cleavage, relative activity (ratio to wild type); higher = more cleavage; in vitro, sequencing; the parent is a self-cleaving ribozyme

| Variant | self-cleavage |
| --- | --- |
| U37C A111G | 0.03 |
| A92G U130C | 0.3 |
| A33G A125G | 0.23 |
| A27G A30G | 0.69 |
| U26C U39A | 1.13 |
| U130A U132C | 1.42 |
| A36U U70G | 1.53 |
| A111G A135G | 0.02 |
| A33G C112G | 0.02 |
| U38C A96U | 1.66 |
| U43C U108C | 0.02 |
| U100A A118G | 0.47 |
| A5U | 1.1 |
| A60G A82C | 0.08 |
| A30U A56G | 0.82 |
| G31A A69U | 2.21 |
| A63U A89C | 1.22 |
| A90G A135G | 0.51 |
| U9G A117G | 2.41 |
| A54G A66G | 1.51 |
| A23U A30U | 0.26 |
| G48A U124A | 0.41 |
| U9A A24C | 0.99 |
| U19C A52U | 0.93 |

| Variant | self-cleavage |
| --- | --- |
| A24G A27G | 0.97 |
| A54G U108C | 0.02 |
| G15A U131C | 0.87 |
| A92G A116U | 0.2 |
| A27U A125G | 0.84 |
| A23U A135G | 1.35 |
| A68G G99A | 0.57 |
| A22G U37G | 0.8 |
| C32G A96U | 1.87 |
| A36G A135G | 1.59 |
| A78U U97C | 0.36 |
| C61U A64U | 0.27 |
| G8A A22G | 1.39 |
| U9C G58A | 1.29 |
| U49G U102C | 1.95 |
| A36G A78G | 0.07 |
| U72C C107U | 0.01 |
| U70C U108C | 0.02 |
| A36U A54C | 1.73 |
| A51U C101U | 0.72 |
| U122C U133A | 0.52 |
| U2C A33U | 1.24 |
| U9A U139A | 1.31 |
| U70G | 0.88 |

| Variant | self-cleavage |
| --- | --- |
| U39A A125G | 1.01 |
| U2A A22G | 1.33 |
| A30G A66G | 1.21 |
| C77U A126U | 1.88 |
| A36U A52G | 1.43 |
| G75U U127C | 0.11 |
| C85U A140G | 1.26 |
| G44A A63G | 0.71 |
| A52U U124C | 0.48 |
| U131C A135C | 1.02 |
| C46U U122A | 1.22 |
| A110C U122G | 0.56 |
| G73U A95G | 0.17 |
| G44C U102C | 2.81 |
| A91G U120A | 1.33 |
| A4U A63G | 0.87 |
| U26C A90G | 1.11 |
| A36U U72A | 0.37 |
| G31U A52G | 1.71 |
| A55U U102A | 1.44 |
| U2C A24C | 1.16 |
| U19C A22U | 1.23 |
| G7A A68G | 1.92 |
| C16U U132C | 1.11 |

| Variant | self-cleavage |
| --- | --- |
| A52G C128A | 0.64 |
| A54U A69G | 0.53 |
| A24U U102C | 1.26 |
| U2A U139A | 1.04 |
| A5C A110G | 0.33 |
| G31U A118G | 1.06 |
| G14A G106A | 0.02 |
| A60G A78C | 0.17 |
| A63G A118G | 0.83 |
| U108C A110G | 0.01 |
| A22U A111G | 0.02 |
| A23U U49C | 1.55 |
| A82G A89U | 0.51 |
| A11C | 1.41 |
| C45U A68C | 1.95 |
| C40U A68G | 1.84 |
| A86U U139A | 1.53 |
| U87C A90C | 0.98 |
| U87C A90G | 0.3 |
| A18U A23U | 1.88 |
| C6A U57C | 0.36 |
| A24C A56G | 2.01 |
| U97C U132C | 1.45 |
| C40U U120C | 1.32 |

| Variant | self-cleavage |
| --- | --- |
| A33G U120G | 0.65 |
| G8U | 1.49 |
| U102C A126C | 1.47 |
| A117G U127A | 2.7 |
| U43C A114U | 0.05 |
| U43C A114C | 0.03 |
| G75A A82G | 0.12 |
| A62G A92G | 1.22 |
| U120A U127C | 1.67 |
| A33G G115U | 0.06 |
| G65A A116G | 0.45 |
| A66U U103C | 0.48 |
| A54G A116U | 0.27 |
| A55G A89U | 1.55 |
| U2C C105U | 0.03 |
| U97G U132C | 1.54 |
| U2A U57C | 0.92 |
| U108A G123C | 0.01 |
| U26G A52C | 0.7 |
| G44C A117G | 1.69 |
| A55C G79A | 0.49 |
| G21A A64U | 1.5 |
| U49G U139C | 1.49 |
| A118U U139A | 0.6 |

| Variant | self-cleavage |
| --- | --- |
| U127A U131C | 2.45 |
| A30G A52G | 1.13 |
| U87A | 1.65 |
| C35U A91G | 1.19 |
| A64G A117G | 1.7 |
| A66G A134G | 1.66 |
| A51U U72A | 0.45 |
| A5G U124C | 0.58 |
| A11C A69G | 1.7 |
| A30G A82G | 0.6 |
| A11G A66G | 0.88 |
| A54G A55C | 1.94 |
| G21U U87C | 1.55 |
| U122C A140U | 1.13 |
| G7A A89G | 0.61 |
| A11G A92C | 0.7 |
| U108A U130C | 0.01 |
| U39C A140U | 1.62 |
| A11G A111G | 0.04 |
| C35U C71U | 0.22 |
| U9A C77A | 0.08 |
| G29A A56G | 1.5 |
| A51G U100A | 0.56 |
| G20A A95U | 1.89 |

| Variant | self-cleavage |
| --- | --- |
| A52C A60G | 1 |
| U97A U132A | 2.62 |
| A94U U97G | 1.52 |
| U122C A134U | 1.75 |
| U19C G75A | 0.23 |
| U102A A116G | 0.18 |
| A36G G106A | 0.02 |
| A64U A114U | 0.02 |
| C6U U43C | 1.58 |
| U38A A55G | 1 |
| U37C U103C | 0.32 |
| G44C A82U | 0.27 |
| A55G A110C | 0.2 |
| G41U A60G | 1.9 |
| C46A U97A | 1.43 |
| U49A A111G | 0.01 |
| U49A A111C | 0.01 |
| A89U A118C | 0.7 |
| A91G A94G | 0.83 |
| U39A U120C | 0.95 |
| A62G A86G | 1.4 |
| U26C A96G | 1.5 |
| U70C U102A | 0.33 |
